This passage reports EC50, Binding value (FACS fluorescence intensity) and Emax results from patent US20210230272A1.

The target in experiment [1] is human PD-L1 (human) (UniProt Q9NZQ7). Kind of experiment: ELISA, PD-L1 coated; control of LB320.
For experiment [2] the target is unchanged. Kind of experiment: ELISA, PD-L1 coated; control of LB319.
In experiment [3] the target is IL10 antibody (Sino biological, Cat #SEKA10947). Kind of experiment: ELISA, same conditions as the antigen-coated ELISA.
Experiment [4] has as its target human CLDN18.2 (human) (UniProt P56856). Kind of experiment: flow cytometry, CF488 labeled antibody 1 µg/ml, hCLDN18.2+ cells.
Experiment [5] shares this target. Kind of experiment: flow cytometry, CF633 labeled antibody 10 µg/ml, hCLDN18.2+ cells.
The target is the same in experiment [6]. Kind of experiment: flow cytometry, CF633 labeled antibody 1 µg/ml, hCLDN18.2+ cells.
The target of experiment [7] is mice CLDN18.2 (mice) (UniProt P56857). The experiment is described as follows: cell ELISA, mCLDN18.2+ cells.
Experiment [8] addresses human CLDN18.2 (human) (UniProt P56856). The experiment is described as follows: flow cytometry, CF488 labeled antibody 10 µg/ml, hCLDN18.2+ cells.

human PD-L1 (human), sequence (Q9NZQ7 19-238): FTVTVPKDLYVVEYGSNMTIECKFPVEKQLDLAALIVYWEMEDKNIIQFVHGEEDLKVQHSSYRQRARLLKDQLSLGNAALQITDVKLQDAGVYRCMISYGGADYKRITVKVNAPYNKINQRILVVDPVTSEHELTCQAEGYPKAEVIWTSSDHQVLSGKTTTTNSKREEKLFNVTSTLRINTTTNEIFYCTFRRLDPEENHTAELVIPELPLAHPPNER

For LB318 (Durvalumab) (antibody), the EC50 in experiment [1] and in experiment [2] was 0.072 nM each time.
In experiment [3], “IL10 (Peprotech, Cat #: 200-10) (from UniProt P22301 19-178) (ligand)” gave an EC50 of 4.53 nM.
Turning to Neg IgG (antibody), the Binding value (FACS fluorescence intensity) in experiment [4] amounted to 1750; in experiment [5], 23.2; in experiment [6] it was 23; in experiment [8] it was 3480. For the same substance, the Emax in experiment [7] worked out at 0.19.
